From patent US20250313629A1 (Hoffmann-La Roche, published 2025)
Changes are numbered by the printed parent chain. Values belong to the binder of their own block, whether it stands above or below them.

Legend:
[1] = biological target: T1, Lag3 expressed on cells (recombinant CHO cells expressing Lag3; Lag3+ NFAT Jurkat effector cells) (human, UniProt P18627 29-525); test: cell-based or functional assay
T1 sequence: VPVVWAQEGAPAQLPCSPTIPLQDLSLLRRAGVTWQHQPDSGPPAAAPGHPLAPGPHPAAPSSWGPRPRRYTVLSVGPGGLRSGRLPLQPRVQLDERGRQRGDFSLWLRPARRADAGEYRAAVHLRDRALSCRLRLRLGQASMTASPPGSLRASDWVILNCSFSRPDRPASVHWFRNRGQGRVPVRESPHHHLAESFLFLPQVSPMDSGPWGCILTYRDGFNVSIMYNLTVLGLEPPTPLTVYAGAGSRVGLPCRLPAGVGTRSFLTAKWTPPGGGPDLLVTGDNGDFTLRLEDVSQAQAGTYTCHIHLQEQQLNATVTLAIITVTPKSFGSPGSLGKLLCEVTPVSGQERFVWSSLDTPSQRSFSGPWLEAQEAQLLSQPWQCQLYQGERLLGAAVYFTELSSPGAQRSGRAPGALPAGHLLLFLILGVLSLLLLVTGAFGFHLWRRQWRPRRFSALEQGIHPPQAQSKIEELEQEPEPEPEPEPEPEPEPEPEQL

[2] = biological target: T2, cynomolgus Lag3 on cells (HEK293F cells transiently transfected with cyno-LAG-3); activated cynomolgus PBMC/T … (cynomolgus); test: flow cytometry on CD3/CD28-activated cynomolgus PBMC, antibody at 10 ug/ml
T2 construct: whole, on cells
Procedure: Thus, cynomolgus peripheral blood mononuclear cells (PBMC) were prepared from fresh cynomolgus blood and were then activated by CD3/CD28 pre-treatment (1 μg/ml) for 2-3 days. […] After staining, cells were washed two times with PBS/2% FCS and analyzed on a FACS Fortessa (BD).

[3] = biological target: T3, biotinylated-Lag3 (UniProt P18627 23-450, limits assumed, biotinylated (site not stated)); test: competition cell ELISA: antibody pre-incubated with biotinylated Lag3, binding to MHC-II on A375 cells
T3 construct: also called LAG-3 (A375 MHC-II ELISA)
T3 sequence (looked up): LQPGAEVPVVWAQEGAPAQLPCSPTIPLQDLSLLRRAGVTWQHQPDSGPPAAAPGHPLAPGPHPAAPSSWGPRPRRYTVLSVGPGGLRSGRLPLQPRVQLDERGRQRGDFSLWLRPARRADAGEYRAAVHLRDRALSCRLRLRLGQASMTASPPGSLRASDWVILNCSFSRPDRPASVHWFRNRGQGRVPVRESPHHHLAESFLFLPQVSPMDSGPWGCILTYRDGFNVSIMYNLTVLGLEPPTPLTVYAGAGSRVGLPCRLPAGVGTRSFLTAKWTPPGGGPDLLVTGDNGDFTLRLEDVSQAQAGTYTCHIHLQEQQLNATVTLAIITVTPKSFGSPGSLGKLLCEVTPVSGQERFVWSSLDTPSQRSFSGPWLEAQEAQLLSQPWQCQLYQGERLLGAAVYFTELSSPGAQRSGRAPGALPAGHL
Procedure: 25 μl/well of A375 cells (10000 cells/well) were seeded into tissue culture treated 384-well plates (Corning, 3701) and incubated at 37° C. overnight. […] After washing (1×90 μl in PBST) cells were fixed by addition of 30 μl/well glutaraldehyde to a final concentration of 0.05% (Sigma Cat.No: G5882), 10 min at room temperature. After washing (3×90 μl/well with PBST-buffer) 25 μl/well Poly-HRP40-Streptavidin (Fitzgerald, 65R-S104PHRPx) was added in a 1:2000 or 1:8000 dilution and incubated at RT for 1 h. After washing (3×90 μl/well with PBST-buffer) 25 μl/well TMB substrate (Roche, 11835033001) was added and incubated for 2 to 10 min. Measurement took place on a Tecan Safire 2 instrument at 370/492 nm.

B1: MDX25F7 (25F7) (antibody, V domains shown)
VH: QVQLQQWGAGLLKPSETLSLTCAVYGGSFSDYYWNWIRQPPGKGLEWIGEINHNGNTNSNPSLKSRVTLSLDTSKNQFSLKLRSVTAADTAVYYCAFGYSDYEYNWFDPWGQGTLVTVSS
VL: EIVLTQSPATLSLSPGERATLSCRASQSISSYLAWYQQKPGQAPRLLIYDASNRATGIPARFSGSGSGTDFTLTISSLEPEDFAVYYCQQRSNWPLTFGQGTNLEIK
notes: also called Medarex 25F7
EC50 [nM] in Jurkat LAG3 + SED + Raji, 2nd assay [1]: 8.6 nM | percentage of Lag3 positive cells [2]: 22.1%

B4: aLAG3(0411) (antibody, V domains shown)
VH: EVHLLESGGGLVQPGGSLRLSCAASGFIVDDYTMNWVRQAPGKGLEWVSVISWDGGATYYADSVKGRFTISRDDFKNTLYLQMNSLRAEDTAVYYCAKGLTDDTLYGSDYWGQGTLVTVSS
VL: DIQMTQSPSSLSASVGDRVTITCRASQSIVSYLNWYQQKPGKAPKLLIYASSSLQSGVPSRFSGSGSGTDFTLTISSLQPEDFATYYCQQTYSTPLTFGGGTKVEIK
notes: also called aLAG3 (411)
EC50 [nM] in Jurkat LAG3 + SED + Raji, 1st assay [1]: 1.1 nM | EC50 [nM] in Jurkat LAG3 + SED + Raji, 2nd assay [1]: 1 nM | percentage of Lag3 positive cells [2]: 46.6%

B5: aLAG3(0416) (antibody, V domains shown)
VH: EVQLVESGGGLVQPGGSLRLACAASGFTFSDYAMSWVRQAPGKGLEWVSGIDNSGYYTYYTDSVKGRFTISRDDVKNTLYLQMNSLRAEDTAVYLCTKTHSGLIVNDAFDIWGQGTMVTVSS
VL: B4 VL with M4L, V30S, A50D, S51A, Q55E, F71A, T91S
notes: also called aLAG3 (416)
EC50 [nM] in Jurkat LAG3 + SED + Raji, 1st assay [1]: 3.1 nM | EC50 [nM] in Jurkat LAG3 + SED + Raji, 2nd assay [1]: 2.5 nM | EC50 [nM] in Jurkat LAG3 + SED + Raji, 3rd assay [1]: 3.5 nM | percentage of Lag3 positive cells [2]: 38.9%

Results, then the binder that gave them:

percentage of Lag3 positive cells [2]: 18.6%
B2: BMS-986016 (antibody, V domains shown)
VH: B1 VH with N54R, N56S
VL: B1 VL

EC50 [nM] in Jurkat LAG3 + SED + Raji, 2nd assay [1]: 22.6 nM | percentage of Lag3 positive cells [2]: 50.7% | IC50 [3]: 1 nM
B3: humanized BAP050 (LAG525) (antibody, V domains shown)
VH: QIQLVQSGPELKKPGETVKISCKASGFTLTNYGMNWVRQTPGKGLKWMGWINTDTGEPTYADDFKGRFAFSLETSASTASLQINNLKNADTATYFCARNPPYYYGTNNAEAMDYWGQGTTVTVSS
VL: DIQMTQTTSSLSASLGDRVTISCSSSQDISNYLMWYQQKPDGTVKVLIYYTSTLHLGVPSRFSGSGSGTDYSLTISNLELEDIATYYCQQYYNLPWTFGQGTKVEIK

EC50 [nM] in Jurkat LAG3 + SED + Raji, 1st assay [1]: 1.1 nM | EC50 [nM] in Jurkat LAG3 + SED + Raji, 2nd assay [1]: 1 nM | EC50 [nM] in Jurkat LAG3 + SED + Raji, 3rd assay [1]: 1.8 nM | percentage of Lag3 positive cells [2]: 43%
B6: aLAG3(0414) (antibody, V domains shown)
VH: B4 VH with H3Q, V29F, S49A, A57G, A61T, D103T
VL: B4 VL with V30S, S51A, S53T, T94S
notes: also called aLAG3 (414)

EC50 [nM] in Jurkat LAG3 + SED + Raji, 1st assay [1]: 1 nM | percentage of Lag3 positive cells [2]: 35.3%
B7: aLAG3(0417) (antibody, V domains shown)
VH: B5 VH
VL: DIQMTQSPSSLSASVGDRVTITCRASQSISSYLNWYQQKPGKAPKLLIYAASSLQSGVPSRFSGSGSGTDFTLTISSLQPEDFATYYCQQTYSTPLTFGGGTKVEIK
notes: also called aLAG3 (417)

percentage of Lag3 positive cells [2]: 44.2%
B8: aLAG3(0403) (antibody, V domains shown)
VH: EVQLLESGGGLVQPGGSLRLSCAASGFTFDDYTMHWVRQAPGKGLEWVSLVSWDGGGTYYTNSVKGRFTISRDNSKNTLYLQMNSLRAEDTAVYFCAKAITDTSLYGYDYWGQGILVTVSS
VL: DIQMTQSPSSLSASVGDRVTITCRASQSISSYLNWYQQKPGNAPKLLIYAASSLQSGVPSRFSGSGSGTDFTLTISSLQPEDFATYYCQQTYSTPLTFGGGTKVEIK
notes: also called anti-Lag3 aLAG3 (0403)
